# Source: paper PMC4192013
# Molecular target: GFP-FcγRIIIa, extracellular region of human FcγRIIIa (residues 19-193, V158 allotype) (human) (UniProt P08637)
# Assay: SPR
row,Substance,Kd
1,Human IgG1 Fc F241I with G2F N-glycan (domain or fragment),2.1 µM
2,Human IgG1 Fc F241S/F243S with G2F N-glycan (domain or fragment),29 µM
3,Human IgG1 Fc F241I/F243I with G2F N-glycan (domain or fragment),10 µM
4,Human IgG1 Fc F241S/F243S with a single GlcNAc residue (domain or fragment),3.5 µM
5,Human IgG1 Fc F243S with G2F N-glycan (domain or fragment),1.9 µM
6,Human IgG1 Fc F241I/F243I with a single GlcNAc residue (domain or fragment),6.3 µM

# Results, then the substance that gave them:
row,Kd,Substance
1,1.5 µM,Human IgG1 Fc F241S with G2F N-glycan (domain or fragment)
2,2.4 µM,Human IgG1 Fc wt with a single GlcNAc residue (GlcNAc-Fc) (domain or fragment)
3,0.34 µM,Human IgG1 Fc K246F with G2F N-glycan (domain or fragment)
4,0.55 µM,Human IgG1 Fc wt (residues 216-447) with G2F N-glycan (domain or fragment)

# Molecular target: GFP-FcγRIIIa, extracellular region of human FcγRIIIa (residues 19-193, V158 allotype) (human) (UniProt P08637)
# Assay: ITC
row,Kd,Substance
1,1.2 µM,Human IgG1 Fc wt (residues 216-447) with G2F N-glycan (domain or fragment)

# Molecular target: Human IgG1 Fc wt (residues 216-447) with G2F N-glycan (human)
# Assay: pull-down
row,Kd,Substance
1,0.5 µM,"GFP-FcγRIIIa, extracellular region of human FcγRIIIa (residues 19-193, V158 allotype) (from UniProt P08637 19-193) (receptor)"
